Experimental findings from patent US20230055566A1 are described below.

For this test, the target named is human FGFR2b (beta)-Fc (human) (UniProt P21802). Description: SPR (Biacore), hFGFR2b-Fc immobilized on CM5 chip, antibody injected at 0-200 nM.

Turning to FPA144 (antibody), the Kd came to 0.75 nM, the koff worked out at 7.77e-05 s⁻¹ and the kon was found to be 104000 M⁻¹ s⁻¹.
